For this data set, the target named is T1, full-length human calprotectin (heterodimer of S100A9 and S100A8), P06702.
T1 chain 1: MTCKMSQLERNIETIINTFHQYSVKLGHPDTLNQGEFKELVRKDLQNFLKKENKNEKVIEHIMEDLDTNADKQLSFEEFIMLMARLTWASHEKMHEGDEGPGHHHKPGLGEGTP
T1 chain 2: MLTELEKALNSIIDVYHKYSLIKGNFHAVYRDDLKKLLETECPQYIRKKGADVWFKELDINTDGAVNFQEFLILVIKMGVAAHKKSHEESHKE

B1: human neutrophil elastase (protein)
chain: IVGGRRARPHAWPFMVSLQLRGGHFCGATLIAPNFVMSAAHCVANVNVRAVRVVLGAHNLSRREPTRQVFAVQRIFENGYDPVNLLNDIVILQLNGSATINANVQVAQLPAQGRRLGNGVQCLAMGWGLLGRNRGIASVLQELNVTVVTSLCRRSNVCTLVRGRQAGVCFGDSGSPLVCNGLIHGIASFVRGGCASGLYPDAFAPVAQFVNWIDSIIQ
As for B1, the “calprotectin fragments identified by non-targeted mass spectrometry after in vitro cleavage” value was “several neo-epitope containing calprotectin fragments were generated by HNE, from both the S100A9 and S100A8 proteins”.
